Numbering of substitutions follows the chain as printed.
B1: IgG1-CD134-GBR830 (antibody, INN chains, looked up, V domains shown)
VH: QVTLKESGPALVKPTQTLTLTCSFSGFSLSTSGMGVGWIRQPPGKALEWIAHIWWDDDKYYNTALKTRLTISKDTSKNQVVLTMTNMDPVDTATYYCARIDWDGFAYWGQGTLVTVSS
VL: EIVLTQSPATLSLSPGERATLSCRASSSVSYMHWYQQKPGQAPRPWIYATSNRATGIPARFSGSGSGTDYTLTISSLEPEDFAVYYCQQWSSNPWTFGQGTKVEIK
modifications: IgG1
B2: IgG1-CD134-ABBV368 (antibody, INN chains, looked up, V domains shown)
VH: EVQLVESGGGLVQPGGSLRLSCAASGFTFSRYGMSWVRQAPGKGLELVATINSNGGRTYYPDSVKGRFTISRDNAKNSLYLQMNSLRAEDTAVYYCAREGITTAYAMDYWGQGTTVTVSS
VL: DIVMTQSPDSLAVSLGERATINCKASQSVDYDGDSYMHWYQQKPGQPPKLLIYAASILESGVPDRFSGSGSGTDFTLTISSLQAEDVAVYYCQQSNEDPRTFGGGTKVEIK
modifications: IgG1
B3: IgG1-CD134-MEDI0562 (antibody, INN chains, looked up, V domains shown)
VH: QVQLQESGPGLVKPSQTLSLTCAVYGGSFSSGYWNWIRKHPGKGLEYIGYISYNGITYHNPSLKSRITINRDTSKNQYSLQLNSVTPEDTAVYYCARYKYDYDGGHAMDYWGQGTLVTVSS
VL: DIQMTQSPSSLSASVGDRVTITCRASQDISNYLNWYQQKPGKAPKLLIYYTSKLHSGVPSRFSGSGSGTDYTLTISSLQPEDFATYYCQQGSALPWTFGQGTKVEIK
modifications: IgG1
B4: IgG1-CD134-RG7888 (antibody, INN chains, looked up, V domains shown)
VH: EVQLVQSGAEVKKPGASVKVSCKASGYTFTDSYMSWVRQAPGQGLEWIGDMYPDNGDSSYNQKFRERVTITRDTSTSTAYLELSSLRSEDTAVYYCVLAPRWYFSVWGQGTLVTVSS
VL: B3 VL with K53R, H55R, Y71F, S92H, A93T, W96P
modifications: IgG1
B5: IgG1-CD134-Hu106 (antibody, from another filing, V domains shown)
VH: QVQLVQSGSELKKPGASVKVSCKASGYTFTDYSMHWVRQAPGQGLKWMGWINTETGEPTYADDFKGRFVFSLDTSVSTAYLQISSLKAEDTAVYYCANPYYDYVSYYAMDYWGQGTTVTVSS
VL: DIQMTQSPSSLSASVGDRVTITCKASQDVSTAVAWYQQKPGKAPKLLIYSASYLYTGVPSRFSGSGSGTDFTFTISSLQPEDIATYYCQQHYSTPRTFGQGTKLEIK

The binders below were run against recombinant human OX40 fused to a His-tag (Acro Biosystems, cat. no. OX0-H5224) (human) (UniProt P43489) (assay: BLI cross-block; first Ab (competitor): IgG1-CD134-007).
Chain of recombinant human OX40 fused to a His-tag (Acro Biosystems, cat. no. OX0-H5224) (human) (P43489 29-214 limits assumed): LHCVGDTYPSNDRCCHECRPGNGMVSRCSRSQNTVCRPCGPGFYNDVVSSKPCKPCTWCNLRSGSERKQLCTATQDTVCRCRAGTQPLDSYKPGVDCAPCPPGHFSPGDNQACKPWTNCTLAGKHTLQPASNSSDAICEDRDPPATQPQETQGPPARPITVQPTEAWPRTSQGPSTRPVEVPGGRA

Q: With B1 as the binder, how does the association response read?
A: 0.07 nm

Q: B2 was tested. Which association response did it give?
A: 0 nm

Q: Which association response does the source give for B3 here?
A: 1.14 nm

Q: With B4 as the binder, how does the association response read?
A: 0.47 nm

Q: Which association response does the source give for B5 here?
A: 0.05 nm

The binders below were run against recombinant human OX40 fused to a His-tag (Acro Biosystems, cat. no. OX0-H5224) (human) (UniProt P43489) (assay: BLI cross-block; first Ab (competitor): IgG1-CD134-012).

Q: B1 was tested. Which association response did it give?
A: 0.84 nm

Q: How did the association response turn out when B2 was run?
A: 0.87 nm

Q: For B3, which association response is on record?
A: 0.82 nm

Q: B4 was tested. Which association response did it give?
A: 0.54 nm

Q: For B5, which association response is on record?
A: 0.8 nm

Each binder was assayed against recombinant human OX40 fused to a His-tag (Acro Biosystems, cat. no. OX0-H5224) (human) (UniProt P43489) (assay: BLI cross-block; first Ab (competitor): IgG1-CD134-A4453).

Q: B1 was tested. Which association response did it give?
A: 0.28 nm

Q: How did the association response turn out when B2 was run?
A: 0.29 nm

Q: B3 was tested. Which association response did it give?
A: 0.41 nm

Q: For B4, which association response is on record?
A: 0.47 nm

Q: Which association response does the source give for B5 here?
A: 0.29 nm

Each binder was assayed against recombinant human OX40 fused to a His-tag (Acro Biosystems, cat. no. OX0-H5224) (human) (UniProt P43489) (assay: BLI cross-block; first Ab (competitor): IgG1-CD134-RG7888).

Q: With B1 as the binder, how does the association response read?
A: 0.61 nm

Q: For B2, which association response is on record?
A: 0.02 nm

Q: Which association response does the source give for B3 here?
A: 0 nm

Q: For B4, which association response is on record?
A: 0.02 nm

Q: Which association response does the source give for B5 here?
A: 0.02 nm

These binders were tested against recombinant human OX40 fused to a His-tag (Acro Biosystems, cat. no. OX0-H5224) (human) (UniProt P43489) (assay: BLI cross-block; first Ab (competitor): IgG1-CD134-11D4).

Q: Which association response does the source give for B1 here?
A: 0.13 nm

Q: For B2, which association response is on record?
A: 0.13 nm

Q: How did the association response turn out when B3 was run?
A: 0.14 nm

Q: With B4 as the binder, how does the association response read?
A: 0.11 nm

Q: With B5 as the binder, how does the association response read?
A: 0.13 nm

These binders were tested against recombinant human OX40 fused to a His-tag (Acro Biosystems, cat. no. OX0-H5224) (human) (UniProt P43489) (assay: BLI cross-block; first Ab (competitor): IgG1-CD134-003-HC6LC2-RR).

Q: B1 was tested. Which association response did it give?
A: 1.08 nm

Q: With B2 as the binder, how does the association response read?
A: 1.68 nm

Q: For B3, which association response is on record?
A: 1.73 nm

Q: B4 was tested. Which association response did it give?
A: 1.38 nm

Q: Which association response does the source give for B5 here?
A: 1.39 nm

These binders were tested against recombinant human OX40 fused to a His-tag (Acro Biosystems, cat. no. OX0-H5224) (human) (UniProt P43489) (assay: BLI cross-block; first Ab (competitor): IgG1-CD134-003).

Q: B1 was tested. Which association response did it give?
A: 0.97 nm

Q: For B2, which association response is on record?
A: 1.27 nm

Q: Which association response does the source give for B3 here?
A: 1.39 nm

Q: For B4, which association response is on record?
A: 0.66 nm

Q: For B5, which association response is on record?
A: 1.06 nm

The binders below were run against recombinant human OX40 fused to a His-tag (Acro Biosystems, cat. no. OX0-H5224) (human) (UniProt P43489) (assay: BLI cross-block; first Ab (competitor): IgG1-CD134-IBI101).

Q: Which association response does the source give for B1 here?
A: 0.02 nm

Q: B2 was tested. Which association response did it give?
A: 0.01 nm

Q: For B3, which association response is on record?
A: 0.28 nm

Q: With B4 as the binder, how does the association response read?
A: 0.23 nm

Q: How did the association response turn out when B5 was run?
A: 0.01 nm

What follows are binders tested against recombinant human OX40 fused to a His-tag (Acro Biosystems, cat. no. OX0-H5224) (human) (UniProt P43489) (assay: BLI cross-block; first Ab (competitor): IgG1-CD134-MEDI0562).

Q: B1 was tested. Which association response did it give?
A: 0.33 nm

Q: B2 was tested. Which association response did it give?
A: -0.01 nm

Q: Which association response does the source give for B3 here?
A: 0 nm

Q: Which association response does the source give for B4 here?
A: 0.02 nm

Q: For B5, which association response is on record?
A: 0.31 nm

What follows are binders tested against recombinant human OX40 fused to a His-tag (Acro Biosystems, cat. no. OX0-H5224) (human) (UniProt P43489) (assay: BLI cross-block; first Ab (competitor): IgG1-CD134-GBR830).

Q: For B1, which association response is on record?
A: 0.01 nm

Q: With B2 as the binder, how does the association response read?
A: 0.01 nm

Q: For B3, which association response is on record?
A: 0.32 nm

Q: B4 was tested. Which association response did it give?
A: 0.26 nm

Q: With B5 as the binder, how does the association response read?
A: 0.01 nm

What follows are binders tested against recombinant human OX40 fused to a His-tag (Acro Biosystems, cat. no. OX0-H5224) (human) (UniProt P43489) (assay: BLI cross-block; first Ab (competitor): IgG1-CD134-h3C8).

Q: B1 was tested. Which association response did it give?
A: -0.02 nm

Q: Which association response does the source give for B2 here?
A: -0.03 nm

Q: Which association response does the source give for B3 here?
A: 0.54 nm

Q: For B4, which association response is on record?
A: 0.41 nm

Q: For B5, which association response is on record?
A: 0.01 nm

What follows are binders tested against recombinant human OX40 fused to a His-tag (Acro Biosystems, cat. no. OX0-H5224) (human) (UniProt P43489) (assay: BLI cross-block; first Ab (competitor): IgG1-CD134-Hu106).

Q: B1 was tested. Which association response did it give?
A: 0.02 nm

Q: For B2, which association response is on record?
A: 0 nm

Q: With B3 as the binder, how does the association response read?
A: 0.69 nm

Q: With B4 as the binder, how does the association response read?
A: 0.1 nm

Q: How did the association response turn out when B5 was run?
A: 0.05 nm

These binders were tested against recombinant human OX40 fused to a His-tag (Acro Biosystems, cat. no. OX0-H5224) (human) (UniProt P43489) (assay: BLI cross-block; first Ab (competitor): IgG1-CD134-SF2).

Q: How did the association response turn out when B1 was run?
A: 0.19 nm

Q: Which association response does the source give for B2 here?
A: 0.04 nm

Q: For B3, which association response is on record?
A: 0.01 nm

Q: With B4 as the binder, how does the association response read?
A: 0.01 nm

Q: With B5 as the binder, how does the association response read?
A: 0.03 nm

These binders were tested against recombinant human OX40 fused to a His-tag (Acro Biosystems, cat. no. OX0-H5224) (human) (UniProt P43489) (assay: BLI cross-block; first Ab (competitor): IgG1-CD134-INCAGN1949).

Q: How did the association response turn out when B1 was run?
A: 0.01 nm

Q: B2 was tested. Which association response did it give?
A: 0.01 nm

Q: How did the association response turn out when B3 was run?
A: 0 nm

Q: How did the association response turn out when B4 was run?
A: 0.02 nm

Q: Which association response does the source give for B5 here?
A: 0 nm

These binders were tested against recombinant human OX40 fused to a His-tag (Acro Biosystems, cat. no. OX0-H5224) (human) (UniProt P43489) (assay: BLI cross-block; first Ab (competitor): IgG1-CD134-49B4-RRE).

Q: Which association response does the source give for B1 here?
A: 0 nm

Q: For B2, which association response is on record?
A: 0 nm

Q: For B3, which association response is on record?
A: 0.15 nm

Q: How did the association response turn out when B4 was run?
A: 0.02 nm

Q: How did the association response turn out when B5 was run?
A: -0.01 nm

What follows are binders tested against recombinant human OX40 fused to a His-tag (Acro Biosystems, cat. no. OX0-H5224) (human) (UniProt P43489) (assay: BLI cross-block; first Ab (competitor): IgG1-CD134-ABBV368).

Q: With B1 as the binder, how does the association response read?
A: -0.01 nm

Q: With B2 as the binder, how does the association response read?
A: -0.04 nm

Q: With B3 as the binder, how does the association response read?
A: -0.02 nm

Q: B4 was tested. Which association response did it give?
A: 0.01 nm

Q: How did the association response turn out when B5 was run?
A: -0.01 nm
